Test results published in the nanobody polyreactivity screen of Harvey et al. (2022).

test: yeast display, Sf9 membrane polyspecificity reagent, FACS + sequencing; frameworks hold sequencing errors
Procedure, shortened: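 Nanobodies came from a synthetic yeast display library in Saccharomyces cerevisiae BJ5465, induced with galactose for 36–48 hours and stained for 1 hour at 4 °C with 10% biotinylated, detergent-solubilized Sf9 membrane reagent. Cells were enriched on streptavidin microbeads and then FACS-sorted, with low and high (top ~1%) gates set on anti-HA fluorescence for expression and streptavidin fluorescence for reagent binding. Each polyreactivity label reflects the gate a clone came from. Genes were amplified by colony PCR, sequenced by MiSeq 2 × 250 and filtered by CDR length.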

Sequence | polyreactivity (PSR sort gate)
QDQLEESGGGLVQAGGSLRLSCAASGYTISPNDMGWYRQAPGKERELVAAITSSVGSTYYADSVKGRFSFSRDNAKNTVYLQMKSLKPEDTAVYYYWGQGTQVTVSS | low polyreactivity
QDQLEESGGGLVQAGGSLRLSCASSGRIFAGYAMGWYRQAPGKERELVAAISGSGGSTYYADSVKGRFTISRDNAKNTVYLQMNSLKPEDTAVFYCNAGKTSRFQYDYWGQGTQVTVSS | high polyreactivity
QDQLEESGGGLVQAGGSLRLSCSASGSIFRRNAMGWYRQAPGKERELVAGITRSTGDTYYADSVKGRFTISRDNAKNTVYLQMNSMKPEDTAVYYCAACGSYYRDDYWGQGTQVTVSS | low polyreactivity
QDQLGDSGGCLVQAGGSLRLSCAASGITFKNYAMVWYRQAPGKEREIVAAISASGGRTYYADSVKGRFTISRDNAKNTVYFPMNSLIPEDTAVYYCNAVYIGSRSRYEYDYWGQGSQVTVSS | high polyreactivity
QDQLGDSGGGLLQAGGSLRLSCAASGQIYFDNMGWYRQAPGKEREMVAAISSSGASTSYADSVKGRFTISRDNAKNTVYLQIYSLNPEDTAVYYCAADSYPAYLGFVGFDYWGQGTQVTVSS | low polyreactivity
QDQLGESGGGLVQAGGRLRLSCAASGFIIWNYGMGWYRQPPGKERELVAAISSGGTITKYADSVKGRFTISRDNAKNTVYLQMNSLKPEDTAVYYWAARWGVRAGYATFDYWGQGTQVTVSS | high polyreactivity
QDQLGESGGGLVQAGGSLRLSGAASGSTFSRNAMGWYRQAPGKERELVAAISRSGGSTHYADSVKGRFTISRDNAKNTVYLQMNSQKPEDTAVYYCAARVPRGDLPGYHYAYYYWGQGTQVTVSS | high polyreactivity
QDQLGESGGGVVQAGGSLRLSCAAYGRTLHYYAMGWYRQAPGKERELVAGIRDSGGSTYYADSVKGRFTISRDNEMNTVYFLMNSLKPEDTAVYYCAARSHRRLMYYWGQGTQVNVSS | high polyreactivity
QDQLVDSGGGLVQAGGSLRLSCAASGRIIFYYTMGSYSQAPGKESELVAAINSTGSTNYADSVKGRFTISRDNAKNTVYLQMNSLKPEDTAVYYCNAGTRYIFLYPPFLGAAFDYWGQGTQVTVSS | low polyreactivity
QDQLVDSGGGLVQAGGSLRLSCAASGSIFPIYAMGGYRQAPGKERELVAAIDWGDGSTSYADSVKGRFTISRDNAKNTVYLQMNSLKPEDTAVYYCAARSVFDLVYYNLIFDYWGQGTQVTVSS | high polyreactivity
QDQLVDSGGGLVQAGGSLRLSSSDSGSIFRYYTMGWYRQSPGKERELVARISSSRSTNYADSVKGRFTISRDNAKNTVYLQMNSLKPEDTEVYYCAARAFSWAGFYYWGQGTQVTVSS | low polyreactivity
QDQLVDSGGRLVQGGGSLRLSCAASGYIFIWYDMGWYRQAPGKERELVAAISGSGGYTYYADSVKGRFTISRDNAKNTVFLQMNSLKPEDTAVYYCAAYVARGNSEVIAMDYWGQGTQVTVSS | low polyreactivity
QDQLVDSGVCLVQARGSLRLSCAASGRIFDAYTMGWYRQAPGKESELVASITGRDGSTYYADSVKGRFTISRDNAKNTVYLQMNSLKPEDTAVDYCNAKYSSFGIRYNYWGQGTQVTVSS | high polyreactivity
QDQLVESAAGLVQAGGSLRLSCAASGSTFATYAMGWYRKAPGKERELVAAITASGGRTFYADSVKGRFTLSRDNAKNTVYLQMNSLKPEDPAVYYCAKRGDYVPYTFDYWGQGTQVTVSS | high polyreactivity
QDQLVESAGGIVQAGGRLRLSCAASGTLYINVMGWYRQSPGKERELVAAISSNGARTYYADSVKGRFTISRDNAKNTVYLQMNSLKPEDTAVYYCDASFYFYSLYGYWGQGTQVTVSS | high polyreactivity
QDQLVESAVGLVQAGGSLRLSCDASGSTFDFYDIGWYRQAPGKERELVATIRWSGDTTYYADSVKGRFTISRDNAKNTVYLQMTRLKPEDTAVYYCNADYFGQESWWMDYWGQGTQVTVSS | low polyreactivity
QDQLVESCGALLQAGGSLRLSCAASGITIDTYFMGRYRQAPGKETELLAAISNSDGSTYYADSVKGRFTISRDNAKHTVYLPMNSLKPEDTAVYYCNAQSYYSWHLRYDYWGQGTQVTVSS | high polyreactivity
QDQLVESCGGLVQAGGSLRLSCAASGHIFIYYAMGWYRQAPWKERELVAVISGSGGRTYYADSVKGRFTISRDYAKNTVSLQMNSLKPEDTAVYYCAAAVRYYPHYDSWGQGTQVNVSS | low polyreactivity
QDQLVESGGALGQAGGSLRLSCAASGSIFFYYAMGCYRQAPGKEREFVAHITSSEASTHYADSVKGRFTISRDTAKNTVYLQMNSLIPEDTAVYYCAADRYPGHRERDFWGQGSQVTVSS | low polyreactivity
QDQLVESGGALVQAGGSLRLSCAASGFTFYKNAMGWYRQAPGKERELVAAISADGGRTYYADSVKGRFTISRDNAKNTVYLQMNSLKPEDTAVYYCAADKRLFRRPKTYDLWGQGTQVTVSS | high polyreactivity
QDQLVESGGALVQAGGSLRLSCAPSGGTFWIYAMGWYRQAPGKERELVAGITTSGATTYYADSVKGRFTISRDNAKNTVYLQMNSLKPVDTAVYYCAADEYYRYEYWGHGTQVTVSS | low polyreactivity
QDQLVESGGCLVQAGGSLRLSCAASGSIFTKYAMGWYRQAPGKERELVAAIDVNGGSTRYADSVKGRFTISRDNAKNTVYLQMNSLKPEDTAVYYCAKDYTASYYPQGLYDYWGQGTQVTVSS | low polyreactivity

Sequence | polyreactivity (PSR sort gate)
QDQLVESGGCLVQAGGSLRLSCAASGSTFRSNAMGWYRQAPGKERELVAAISRGGSTNYADSVKGRFTISRDNAKNTVYLQMNSLKTEDTAVYYCNADWDYRDFYDITYDYWGQGTQVTVSS | low polyreactivity
QDQLVESGGCLVQAGGSLRLSCADSGSNFWYYAMVWYRQAPGKERELVAAITSAGSTYYADSVKGRFTISRDNAKITVYLQINSLKPEDTAVYYCAKVKAWSEYYYWGQGTQVTVSS | low polyreactivity
QDQLVESGGGIVQAGGSLRLSCAASGFTFHNNVMGWNRQAPGKERELVATISKSGGSTYYADSVKGRFTISRDNAKNTVYLQMNSLKPEDTAVYYCAGRYRDYGRYGYWGQGTQVTVSS | high polyreactivity
QDQLVESGGGIVQAGGSLRLSCAASGSTFDFNAMGWYRQAPGKERELVASISWETGGTYADSVKGRFTISRDNGKNTVYLQMKSLNPEDTAVYYCAARPDYFIFEYWGQGTQVTVSS | low polyreactivity
QDQLVESGGGLDQAGGSLRLICAASGRIFIYYAMGWYRQAPGKETELVAAISSTGTTNYADSVKGRFTISRDNAKNTVYLQMTSLKPEDTAVYFCAARVRTATRRFTSYSWGQGTQVTVSS | high polyreactivity
QDQLVESGGGLDQAGGSLRLSCAASGFTFIRYAMGWYRQAPGKERELVATITRSGGSTYYADSVKGRFTISRDHAKNTVYLQMNSLKPEDTAVYYCAKRGTLGSYYYWGQGTQVTVSS | high polyreactivity
QDQLVESGGGLDQAGGSLRLSCAASGRIFALNAMGWYRQAPGKERELVATIRWRGGSTYYADSVKGRFTISRDYAKNTVYLQMNSLKPEDTAVYYCASYSGNRRTYDYWGQGTQVTVSS | high polyreactivity
QDQLVESGGGLDQAGGSLRLSCAASGRIFDVYAMGWYRQAPGKERELVAAISWSGSSTYYADSVKGRFTISRDNAKNTVYLQMNSLKPEDTAVYSCATVLRVTRVDYWGQGTQVTVSS | high polyreactivity
QDQLVESGGGLDQEGGSLRLSCAASGIFSYEAMGWNRQAPGKERELVATISRRGSSTYYADSVKGRFTISRDNAKNTVYLQMNSLKPEDSAVYYCAAVRYISPAFLPASSYELGYWGQGSQVTVSS | low polyreactivity
QDQLVESGGGLVHAGGSHRFSCAASGFTFGAYAMGWSRQAPGKERELVATITNSGRTYYADSVKGRFTISRDNAKNTVYLQMNSLKPEDTAVYYCAAQPDGQAMEHWGQGTQVTVSS | low polyreactivity
QDQLVESGGGLVQAAGSLRLTCAASGLTFAYYAMGWNRQAPGKERELVAAISWNGGRTYYADSVKGRFTISRDNAKNTVYLQMNSLKPEDTAVDYCAAEVTSSFYWGQGSQVTVSS | high polyreactivity
QDQLVESGGGLVQAGASRRLRCAASGSIFGRNTMGWYRQAPGKESELVAAISSGGRTYYADSVKGRFTISRDNAKYTVFLQMNSLKPEDTAVYYCAAALRRRRADFDYWGQGTQVTVSS | high polyreactivity
QDQLVESGGGLVQAGCSLRLSCAASGSTFRTYAMGWYRQAPGKERDLVAAIRRGGSTKYADSVKGRFTISRDNAKYTVYLQINSLIPEDTELYYCAAVTYVPRSTNGISLYDYWGQGTQVTVSS | high polyreactivity
QDQLVESGGGLVQAGGILSLICAASGITFHSNDMGWYRQAPGKERELVAAISWSDDTTYYADSVKGRFTISRDNAKNTVYLQMNSLKPEDTAVYYCAAEFFGSYGYYEYDYWGQGSQVTVSS | high polyreactivity
QDQLVESGGGLVQAGGRLRLSCAASGSIFLRNAIGWYRQAPGKERDLVAAISKSGGSTYYADSVKGRFTISRDNAKNTVYLQMNSLKPEDTAVYYCAARTTYLYGMYYWGQGTQVTVSS | low polyreactivity
QDQLVESGGGLVQAGGRLRLSCAASVRIFWVNAMGWYRQAPGKERELVAAISWTSGSTYYADSVKGRFTISRDHANNTVYLMMNSLKPEDTAVYYCNKVQSGEYDYWGQGTQVTVSS | high polyreactivity
QDQLVESGGGLVQAGGSHRLSCAASGSTFGVNDMGWYRQAPGKERELVARITGGGSTYYADSVKGRFTISRDNAKNTVYLQMNSLKPEDTAVYYCNAAFWAPQATGYYYWGQGTQVTVSS | low polyreactivity
QDQLVESGGGLVQAGGSLRISSAASGRTYKSNAMGWYRQAPGKERELVATISRGGGSTYYADSVKGRFTISRDNAKNTVYLQMNSLKPEDTAVYYCAKGSNSYLRYHYTYPYDYWGQGTQVTVSS | high polyreactivity
QDQLVESGGGLVQAGGSLRLICAASGLIFGFYAMGWYRQAPGKERELVAAINTGGITYYADSVKGRFTISRDNAKYTVYLQMNSLKPEDTAVYYCNKDSHISTAYDYWGQGTQVTVSS | low polyreactivity
QDQLVESGGGLVQAGGSLRLICAASGMGWFRQAPGKEREFVAVIRWSSGSTYYADSVKGRFTISRDNAKNTVYLQMNSLKPEDTAVYYCAAGGYPSLLHDYDYWGQGTQVTVSS | low polyreactivity
QDQLVESGGGLVQAGGSLRLICDASGSILWHYAMGWYRQAPGTEREWVAAITQRGGSTYYADSEKGRFTISRDTAKYNVYLQMNSLKPEDTAVYYFNTYPTRTYPSYYYWRQGTQVTVSS | high polyreactivity
